From the supplement of paper PMC7125110
± gives the standard error. This sample holds only a part of the variants without activity.

B1: glmS ribozyme (parent)
chain: AUAAAAGCGCCAGAACUACAGAAAUGUAGUUGACGAGGAGGAGGUUUAUCGAAUUUUCGGCGGAUGCCUCCAAA

What was measured:
Details in all cases: with glucosamine-6-phosphate
[1] = variants of: B1; assay: self-cleavage kobs at 40 uM GlcN6P; higher = faster cleavage; RNA array
How it was run: (§1)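 Tiles bearing barcoded ribozyme variants, transcribed in situ by E. coli RNA polymerase on sequenced MiSeq chips, were imaged over ~14 h at 37 °C using a hybridised Cy3 probe. Glucosamine-6-phosphate was supplied at 40 μM to 10 mM in HEPES/KCl/Mg(OAc)2 buffer. kobs came from one- or two-exponential decay fits to normalised per-tile medians, and weighted Michaelis–Menten fits then provided kcat and KM.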

[2] = variants of: B1; assay: self-cleavage kobs at 160 uM GlcN6P; higher = faster cleavage; RNA array
How it was run: as §1

[3] = variants of: B1; assay: self-cleavage kobs at 2500 uM GlcN6P; higher = faster cleavage; RNA array
How it was run: as §1

[4] = variants of: B1; assay: self-cleavage kobs at 10000 uM GlcN6P; higher = faster cleavage; RNA array
How it was run: as §1

[5] = variants of: B1; assay: self-cleavage kobs at 640 uM GlcN6P; higher = faster cleavage; RNA array
How it was run: as §1

Variant	self-cleavage kobs at 40 uM GlcN6P [1]	self-cleavage kobs at 160 uM GlcN6P [2]	self-cleavage kobs at 2500 uM GlcN6P [3]	self-cleavage kobs at 10000 uM GlcN6P [4]	self-cleavage kobs at 640 uM GlcN6P [5]
C34A G38A	< 1e-05 s⁻¹	< 1e-05 s⁻¹	< 1e-05 s⁻¹	< 1e-05 s⁻¹	
C34U G35U	< 1e-05 s⁻¹	< 1e-05 s⁻¹	< 1e-05 s⁻¹	< 1e-05 s⁻¹	< 1e-05 s⁻¹
G32A C50A U55G C71G	< 1e-05 s⁻¹				
C34A G37U	< 1e-05 s⁻¹	< 1e-05 s⁻¹	< 1e-05 s⁻¹		
A33G G44C	< 1e-05 s⁻¹	< 1e-05 s⁻¹	< 1e-05 s⁻¹	< 1e-05 s⁻¹	< 1e-05 s⁻¹
U31A G38U A42C U55G	< 1e-05 s⁻¹				< 1e-05 s⁻¹
G32A A33C	< 1e-05 s⁻¹	< 1e-05 s⁻¹			
G32A U55G	4.93e-05 ± 1.7e-05 s⁻¹		0.000627 ± 0.00014 s⁻¹	0.00326 ± 0.00054 s⁻¹	0.000327 ± 5.7e-05 s⁻¹
U31C G51U	< 1e-05 s⁻¹			< 1e-05 s⁻¹	
U31C G51C	< 1e-05 s⁻¹		< 1e-05 s⁻¹	< 1e-05 s⁻¹	
C34G G41C G66U	< 1e-05 s⁻¹			< 1e-05 s⁻¹	
G32C C34A	< 1e-05 s⁻¹	< 1e-05 s⁻¹		< 1e-05 s⁻¹	< 1e-05 s⁻¹
G32U C34G C68G	4.91e-05 ± 1.8e-05 s⁻¹			3.41e-05 ± 1.6e-05 s⁻¹	
G32U U69G	7.55e-05 ± 1.7e-05 s⁻¹			9.29e-05 ± 1.7e-05 s⁻¹	0.000345 ± 8.4e-05 s⁻¹
C34G C50G G59A C67G	3.78e-05 ± 1.8e-05 s⁻¹	0.000158 ± 3.7e-05 s⁻¹	0.000115 ± 2.3e-05 s⁻¹		
C34A G51A	< 1e-05 s⁻¹	< 1e-05 s⁻¹	< 1e-05 s⁻¹		
A33U A52C	< 1e-05 s⁻¹	< 1e-05 s⁻¹		< 1e-05 s⁻¹	
A33U C34U G60U	< 1e-05 s⁻¹				
U31G C34U A42G	< 1e-05 s⁻¹	< 1e-05 s⁻¹	< 1e-05 s⁻¹	< 1e-05 s⁻¹	< 1e-05 s⁻¹
C34A U45G	< 1e-05 s⁻¹	< 1e-05 s⁻¹	< 1e-05 s⁻¹	< 1e-05 s⁻¹	< 1e-05 s⁻¹
A33U U56A U65A	< 1e-05 s⁻¹				
U31A G62C	< 1e-05 s⁻¹	< 1e-05 s⁻¹	< 1e-05 s⁻¹	< 1e-05 s⁻¹	
G32A G63U	< 1e-05 s⁻¹	< 1e-05 s⁻¹	< 1e-05 s⁻¹	< 1e-05 s⁻¹	
A33U C70A	< 1e-05 s⁻¹				

Variant	self-cleavage kobs at 40 uM GlcN6P [1]	self-cleavage kobs at 160 uM GlcN6P [2]	self-cleavage kobs at 2500 uM GlcN6P [3]	self-cleavage kobs at 10000 uM GlcN6P [4]	self-cleavage kobs at 640 uM GlcN6P [5]
G32U A36C C68A	< 1e-05 s⁻¹			< 1e-05 s⁻¹	
A33C G51A G66A C70G	< 1e-05 s⁻¹				
A33C G41C U47C A53G U54C U65G C70U	< 1e-05 s⁻¹			< 1e-05 s⁻¹	
U31G U45G C61A	< 1e-05 s⁻¹		< 1e-05 s⁻¹	< 1e-05 s⁻¹	
G32C G44U U56A	< 1e-05 s⁻¹			< 1e-05 s⁻¹	< 1e-05 s⁻¹
U31G C61G	< 1e-05 s⁻¹	< 1e-05 s⁻¹		< 1e-05 s⁻¹	< 1e-05 s⁻¹
U31G C61A	< 1e-05 s⁻¹	< 1e-05 s⁻¹	< 1e-05 s⁻¹	< 1e-05 s⁻¹	
C34A A36G	< 1e-05 s⁻¹	< 1e-05 s⁻¹	< 1e-05 s⁻¹	< 1e-05 s⁻¹	< 1e-05 s⁻¹
G32U U47G U69G	0.000146 ± 3.4e-05 s⁻¹			0.000404 ± 7.2e-05 s⁻¹	
G32C G35A A48U A52U U54C C67U	< 1e-05 s⁻¹	< 1e-05 s⁻¹			< 1e-05 s⁻¹
C34A G41A U65G	< 1e-05 s⁻¹				
G32U G44A	< 1e-05 s⁻¹				
A33G U45C	< 1e-05 s⁻¹		< 1e-05 s⁻¹		< 1e-05 s⁻¹
A33U C34U G60C C68U	< 1e-05 s⁻¹		< 1e-05 s⁻¹		
C34A G60U C68A	< 1e-05 s⁻¹		< 1e-05 s⁻¹		< 1e-05 s⁻¹
G32C G44C U55C C68A C70U	< 1e-05 s⁻¹		< 1e-05 s⁻¹		
G32U G40U U46C U54G C70G	< 1e-05 s⁻¹				
C34A C58U	< 1e-05 s⁻¹	< 1e-05 s⁻¹	< 1e-05 s⁻¹	< 1e-05 s⁻¹	< 1e-05 s⁻¹
A33U C61U C70G	< 1e-05 s⁻¹				
G32A G43U C67U	< 1e-05 s⁻¹		< 1e-05 s⁻¹		
U31C A33C A36G C71G	< 1e-05 s⁻¹				
A33C G41C U57G	< 1e-05 s⁻¹		< 1e-05 s⁻¹		
A33G C71U	< 1e-05 s⁻¹			< 1e-05 s⁻¹	
U31G U55G	0.000486 ± 0.0001 s⁻¹	0.000859 ± 0.00014 s⁻¹	0.0116 ± 0.0027 s⁻¹	0.0152 ± 0.0067 s⁻¹	0.00296 ± 0.00071 s⁻¹
